Results as given in patent publication US20250170238A1 (LANIER BIOTHERAPEUTICS, published 2025).

B1: anti-IL-25 antibody LNR125 (antibody, V domains shown)
VH: QVTLKVSGPGILQPSQTLSLTCSFSGFSLNTSGMGVGWIRQPSGKGLEWLAHIWWDDVKRYNPALKSRLTISKDTSGSQVFLKIASVDTADTATYYCARTLPHFFDYWGQGTTLTVSS
VL: DIQMTQSPAIMSASPGEKVTISCRASSSVSYMYWYQQKSGSSPKPWIYRTSNLASGVPARFSGSGSGTSYSLTISSMEAEDAATYYCKQYHSYPPTWTFGGGTKLEIKR
B2: humanized anti-IL-25 antibody LNR125.38 (antibody, V domains shown)
VH: QVTLKESGPTLVKPTQTLTLTCTFSGFSLSTSGMGVGWIRQPPGKALEWLAHIWWDDVKRYNPSLKSRLTITKDTSGSQVVLTMTNMDPVDTATYYCARTLPHFHDYWGQGTTLTVSS
VL: DIQMTQSPSTLSASVGDRVTITCRASSSVSYMYWYQQKPGKAPKPLIYRTSNLASGVPSRFSGSGSGTEYTLTISSLQPDDFATYYCKQYHSYPPTWTFGGGTKVEIKR

Key:
Cyno Monkey IL-25 (HEK) = molecular target: T1, Cyno Monkey IL-25 (HEK) (cynomolgus monkey, UniProt G7P9V9 33-176); assay: binding affinity, method not stated; cyno monkey IL-25 made in HEK
T1 construct: also called Cyno Monkey (HEK)
T1 sequence: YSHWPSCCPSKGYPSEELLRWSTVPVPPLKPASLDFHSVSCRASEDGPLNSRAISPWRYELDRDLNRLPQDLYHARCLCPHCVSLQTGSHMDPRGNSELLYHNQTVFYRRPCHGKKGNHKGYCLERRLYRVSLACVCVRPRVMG

[1] = molecular target: T2, Human IL-25 (made from human (HEK) sources) (human, UniProt Q9H293 33-177); assay: binding affinity, method not stated; human IL-25 made in HEK
T2 construct: also called IL-17E
T2 sequence (looked up): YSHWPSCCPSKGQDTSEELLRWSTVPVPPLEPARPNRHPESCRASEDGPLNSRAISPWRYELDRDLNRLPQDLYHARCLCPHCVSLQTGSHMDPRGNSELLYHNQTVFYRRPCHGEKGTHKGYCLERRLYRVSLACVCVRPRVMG

[2] = molecular target: T3, mouse IL-25 (made from mouse (NSO) source) (mouse, UniProt Q8VHH8 17-169); assay: cell-based or functional assay
T3 sequence (looked up): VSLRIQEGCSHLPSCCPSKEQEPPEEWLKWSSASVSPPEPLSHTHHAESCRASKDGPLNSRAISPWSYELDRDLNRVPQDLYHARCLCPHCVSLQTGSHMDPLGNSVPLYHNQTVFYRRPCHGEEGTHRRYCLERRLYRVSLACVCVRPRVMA

[3] = molecular target: T2, Human IL-25 (made from human (HEK) …); assay: cell-based or functional assay
[4] = molecular target: T3, mouse IL-25 (made from mouse (NSO) …); assay: binding affinity, method not stated; mouse IL-25 made in NSO

| Binder | Kd (Cyno Monkey IL-25 (HEK)) [nM] | Kd [1] [nM] | Potency IC50 in HT29 cell assay [2] [µg/mL] | Potency IC50 in HT29 cell assay [3] [µg/mL] | Kd [4] [nM] |
| --- | --- | --- | --- | --- | --- |
| B1 | 0.17 | 0.128 | 130 | 120 | 0.168 |
| B2 | 0.235 | 0.051 | 780 | 100 | 0.096 |
